Experiment: soluble on expression in E. coli; label from the status in PepcDB or PDB records

Sequence	soluble on expression in E. coli
VILKDALLMGTKLLKSADIDTPALEAGVLLCRVLNVDRSYLYSHDDYNMTEEEYKKFTLFLEERIKGKPLQYITGHQEFMSLDFIVTPDVLIPRQDTETLVEAVLTHVKSTGLENARILDIGTGSGCIAVSLAHFLKDSRVLALDISEKALEIAETNAKRCGVWDRMFFLKGDALEGLAGIIAQSPFAKDFERKGEGFFDIIVSNPPYIPSEEIKTLHKQVKDYEPRTALDGGIDGLDFYRAITCEAAKLLSTDSLLAFEVGYNQAENVSEFMKESFSAIKVVKDLAGIDRVVMGCRKQLKD	soluble
SAALRYAGLDDTDSEDELPPGWEERTTKDGWVYYANHTEEKTQWEHPKTGKRKRVAGDLPYGWEQETDENGQVFFVDHINKRTTYLDPRLAFTVDDNPTKPTTRQRYDGSTTAMEILQGRDFTGKVVVVTGANSGIGFETAKSFALHGAHVILACRNMARASEAVSRILEEWQQGAATTVYCAAVPELEGLGGMYFNNCCRCMPSPEAQSEETARTLWALSERLIQERLGSQSG	soluble
MQSPPGKPEIHKCRSPDKETFTCWWNPGTDGGLPTNYSLTYSKEGEKTTYECPDYKTSGPNSCFFSKQYTSIWKIYIITVNATNQMGSSSSDPLYVDVTYIVEPEPPRNLTLEVKQLKDKKTYLWVKWSPPTITDVKTGWFTMEYEIRLKPEEAEEWEIHFTGHQTQFKVFDLYPGQKYLVQTRCKPDHGYWSRWSQESSVEMPNDFTLKDRSRSHHHHHH	soluble
MAHHHHHHMRNMNDKNNVHNNYYYLKLENVNNGWRNKELKNDITNENIYQFIGKKKKNYSSSEMSKNSYSTCNTNNNIYINYNNNNNMYNNYNNNIYKNLNNRNINYKGYKFKQNYHTNAYVNISKNRNYYYPSESKKLTNEYNKYDFDNLEKRECKIINDESYKIEETTDMENDMLYIHNDSLPSHQPTINNNTQELYHINNYNNNIYFYEPCEKDNYLDSSIKDIYFDIYSNDTSENIKNETNDIINVDQKGNKYEENNINISNNTHEYKTFVNDDKQLLLDHIKRLEYQNNIFLNNMLNMYYVCIDYIKLQDDKIKEHEQVINSQKEFISNLKKQLSSNDNTNVAYNININHINKYKHVTK	not soluble
MSLCQLLGMNCNTPTDIMFSFEGFRRRGGITDHHADGFGIGFFEGKGVRLFHDDKPSVNSPVADLVRAYQIKSENVIAHIRKASQGQTSLANTHPFMREMWGGYWLFAHNGHLIDFFPEQGEFFHPVGTTDSERAFCHILNRLRTRFAARPDDDTLFDAIAGLTHEIRKFGLFNFMLSDGIALFAHASTLLHYIVRQAPFGKEGHHHHHH	not soluble
MGHHHHHHSHAELSANQSRIDALEKAGQKLIDVNHYAKDEVAARMNEVISLWKKLLEATELKGIKLREANQQQQFNRNVEDIELWLYEVEGHLASDDYGKDLTNVQNLQKKHALLEADVAAHQDRIDGITIQARQFQDAGHFDAENIKKKQEALVARYEALKEPMVARKQKLADSLRLQQLFRDVEDEETWIREKEPIAASTNRGKDLIGVQNLLKKHQALQAEIAGHEPRIKAVTQKGNAMVEEGHFAAEDVK	soluble
APAHADHQITKRTDAENMYNTIQFLSQAPRVAGSPEELKAVRYIEQQFKSYGYHVEVQPFQFEGYTAPSEVTLKIGTEKKEGEAFTYSPNSDVTAELVYVGLGTTADVAGKDLNGKIALIQRGNISFADKVRNAAKQGAKAVIIYNNTDGKLNGTLGGSDASFVAAVGITKQEGDALAANLRAGEKITATVKVAGAEVKTLTSHNVIATKKPDANKKNTNDIIIIGSHHDSVEKAPGANDDASGVAVTLELARVMSKLKTDTELRFITFGAEENGLIGSKKYAASLSEDEIKRTIGMFQLDMVGSKDAGDLIMYTIDGKKNRVTDLGAAASSRLSGVLPYGQEGRSDHESFHALGIPAALFIHAPVEPWYHTPNDTLDKISKEKLDNVADIVGSAVYQAARPGELVIEPIDYPRRNVELQN	soluble
MKVNDRVTVKTDGGPRRPGVVLAVEEFSEGTMYLVSLEDYPLGIWFFNEAGHQDGIFVEKAE	soluble
MTKDILILAVETSCDETSVSVIKNGRDILSNTVLSQIESHKRFGGVVPEVASRHHVEGITATINEALGDADVSIEDIDAIAVTEGPGLIGALLIGVNAAKALAFAYDKPLIPVHHIAGHIYANHIEEPLTFPLIALIVSGGHTELVYMKDHLSFEVIGETRDDAVGEAYDKVARTIGLNYPGGPQVDRLAAEGEDTYSFPRVWLDKDSYDFSFSGLKSAVINQLHNQRQKNIPIIEANVATSFQNSVVEVLTFKAIQACKEYGVQRLIVAGGVASNKGLRQSLADQCKVNDIQLTIPSPKLCTDNAAMIGVAGHYLYQQGRFADLALNGHSNIDLEEYSAE	not soluble
MGHHHHHHSHMWSSREIEDLGLTFAIAIDKGKETNTEKELKEEGGSYPKKDNITLTYQFVNEKAAGAGTSGGGGSGQGAQKAYINISETGDSLQQIGSEVALRRDREVFSPHLKVVVMSEDVLHTFPIDEMLDQFFRDNEIRLSCLVLSAKGEARDALQLKENGEIPAFRLIGLGENEHKVSRILPPMTLAKLIGKLHSGSSFLLQNVVAANGAVKYSGAAVINGKSKKMIGTLNEYETEGITWIRGEGKGGVVKSHDKKSQQTLAYDINKIKSRIQPIVKGKDISFHVDIESEGDLVENWNTKEALDTQFIDRLETTIENEVKKIVGQVLKKIQHDYKADVAGFDESFRLTYPHLWKRVKNNWDDTFSKADITYSVNVTITHFGTVKTQ	soluble
MGSDKIHHHHHHMDYTRYVVQPGDSIYKIANAYKIEMSDIINLNHLKHPDRIYPGQILLLPTYEFKDTLPGEIPEPNFTYAMWLFDVYAGKDSELSAVTTYLYQAVVLDRPEFDELLRPIAYDELRHLEQLAWCIRFLGVDPRYGSFSKGRWFDWRSRYLNYSTELCVILDHNMKDEAAAVKHYTDLAQKIPIPEIQTILLQLAADEERHYQCLAQAKTRFCGCGSSQTQHIKESSNGEEL	not soluble
MNMNKTYIPKLDDLLGGGVKEGASIMFSASPGVDYEAFGYQMLNGRLDEGTRGFIFTNVEEPESIIYEFRSYGWDIESHIENGNLFFVDGSSPFLGMPSDQRYTVNDYSEIKDVVLNAINDIPGGVGIINNLSVIIDYLGNGDTLEIVEAWNRRASELDVNLVYLFTEWDYEPELIDKLRESMDCVVNLRTIEERVIIGQGFMVANSAWSEPPSTMVLFFVVQPGGVKVYVPKILVTGPYNSGKSSFVRAIATKSVSVDRKALSAFPTTIAMDIGHLEYKGFMADIFGTPGQERFDMILDVLSREAVGAFILLDSTAPETFARAKEMIRKTRAEAIPKVVVANKQDLPGALSPEEIREMMKLGADVPIVPASVTEGWGVRDALDTLLGLLYGGLEHHHHHH	not soluble
MTSVIPEQRNNPFYRDSATIASSDHTERGEWVTQAKCRNGDPDALFVRGAAQRRAAAICRHCPVAMQCCADALDNKVEFGVWGGLTERQRRALLRKKPHITNWAEYLAQGGEIAGV	not soluble
MAEAKQWDVKQLDRIVEKMIDTVQHSKDEIFRIGEQSRQEHDHLLRELEEVKRLTVQAIEEADQLEMKARQARRRLSEVSQNFSTHSEQDIREAYEQAHELHMKLTMVREREKQLRLRRDELERRLASLAQIIERADYLVGQITVVLHYLNSDFRQVGELIEGAKQKQEFGLKIIEAQEEERRRLSREIHDGPAQLLAHVLLRSDLVEKVIKERGTEAAIAEIRDFRKMVRSALSEVRRIIYDLRPMALDDLGLVPTLKKYLQTTEEYNKGVHISFVHIGEEIRLPSRMEAAVFRLVQESVQNALKHAEARHIDVKMEVTCDHLLVSVKDDGKGFDPSVKKENAFGLIGMRERVELLGGTLDIRSKIGSGTTVFIRVPLDRSTDKTNKEERKR	not soluble
MMFGRFTERAQKVLALSQEEAIRIGHNNIGTEHILLGLVREGEGIAAKALIALGLSPEKVQKEVEALIGRGTEASQTVHYTPRAKKVIELSMDEARKLGHSYVGTEHILLGLIREGEGVAARVLNNLGVSLNKARQQVLQLLGSNEASSGHQGGSSTNANTPTLDSLARDLTVVARENRLDPVIGRGKEIQRVIEVLSRRTKNNPVLIGEPGVGKTAIAEGLAQQIVNNEVPETLRDKRVMTLDMGTVVAGTKYRGEFEDRLKKVMDEIRQAGNIILFIDELHTLIGAGGAEGAIDASNILKPSLARGELQCIGATTLDEYRKYIEKDAALERRFQPIHVDEPSLDESTQILKGLRDRYEAHHRVSITDDAIDAAVKLSDRYITDRFLPDKAIDLIDEAASKVRLRSYTTPPNLKELEVKLEEIRKEKDAAVQSQEFEKAASLRDMEQRLREKLEDTKRQWKEQQGKENSEVTVEDIANVVSTWTRIPVSKLAQTETDKLLNLESILHDRVIGQDEAVVAVAKAVRRARAGLKDPKRPIGSFIFLGPTGVGKTELARALAESMFGDEDAMIRIDMSEYMEKHSTSRLVGSPPGYVGYEEGGQLTEKVRRKPYSVVLLDEVEKAHPDVFNILLQVLEDGRLTDSKGRTVDFRNTIVIMTSNVGAEALKRNKHLGFNVQDESRDYSDMKGKVMDELKKAFRPEFLNRIDEIIVFHMLEKKHIQEIVTLMVNQLVNRLKEQEIELHLTEGAISAIADKGFDREYGARPLRRAIQKHVEDRLSEELLKGAIEKGQKVIFDVEGESFVIHSAEKVK	soluble
MSSMSESDSYQSSQLTSEPDLVALDAKIMAVMDGTEELEREIGKMMALQQAISDYKKSHQHRTQRTKEKLTDMSKDLTITGKNIVKSCEERLKQISDVTEPYINSGISSVEDHTSSVVERCIQMLGAISGLGGAMKKTEGLSSKVLEHHRKLAIMEHKQADAISRYEKAVGVQKLVREHPAGDPLHELANLLGIFLALQQSPNTSEYYKKVFDGFGGRVTALFAEIDRPKTAKSLATRSGMSTLSSMSNGEINLESIKDNTEIPVDTCQ	not soluble
PSLALYVDASGKIKYINEYFLEICRFKSADEATGRSPSELLDTSSRRTLAEKVMETGEGIYNVEKSIKFKALDKPLFTVLSAVPVKDETGTIAGSLMVITDMT	not soluble
MGSDKIHHHHHHMSLLALFSLFGCDNAANTATICKNNPELCDDLHRDSWCRYERADLIQKRYTLKNTPSPTGKQIYQHLINLENYSKCIELAAGVQHIMHPERTNDRVRAFGISAQNLAQLRETTKDNPDLYLSYYHWIRLNDQAALSRVIKAQQAGSIKDLEILASLASYYQKSDLDKAKALYLQLLDSADPDSFNPDWLLGLASIYHQQNDLEKTYLFSKANVLMTRNTASDAKMNALINGNQQLAHFLDEQADTLVEHLKNGDYASSEIRAQLNTSS	not soluble
GPGSMPVANEASSFNVLYALNKCNPKRRRWMNGWLYVNFDRATLVDGISRKAVGVVSGTGLLPNKVFKMMVEADNGAAWEMGTEVVIGQYITQIEGTTRLHLIPYTLFSGVDCIDDNAAEEVSSVELAGSSMTSRVVNVTAGFSATRADAPLSRRKTTEQLISELRGAYPQIFI	not soluble
MAHHHHHHMKNGKPMGGRETQKQKQKQKQVTLLTWINRANQPRQLTRKTKKAHEKQEERRIWLGAAKRLPQKMPQSMRCNYDIRTHINTHIHKHSHSHSHQLQTYTRTHHLSQKEMKRNEPQDIIRFHSNTQEPAGSTSSHVVTRLVITLLLLCTTQICPTSTEAVERGKQGALLFR	soluble
MDDIVPDVLDAVPAGTIKVIYGDDLEVKQGNELTPTQVKDQPIVSWSGLEGKSNLLTLLMVDPDAPTRQDPKYREILHWSVVNIPGSNENPSGGHSLADYVGSGPPKDTGLHRYIFLLYRQENKIEETPTISNTTRTGRLNFNARDFAAKHGLGEPIAANYYQAQYDDYVPIRNKTIVG	soluble
GGKFVQAWSQFPAGKWGVEPNPVSVVPTHGEVLNDGKVKEVPWVLELTPMPVSGTTVGKDGINPDEPMTLETVDRFAREIGFKGRYQLNLPKGEDGVWTLSQDSMSYDMISPFADRTVHIDQYSGKILADIRFDDYNPFGKFMAASIALHMGTLG	not soluble
